The experiment has as its target FcRn. The experiment is described as follows: SPR (BIAcore) at pH 6.0.

Chain of FcRn (P55899 24-297, chain 1 of 2): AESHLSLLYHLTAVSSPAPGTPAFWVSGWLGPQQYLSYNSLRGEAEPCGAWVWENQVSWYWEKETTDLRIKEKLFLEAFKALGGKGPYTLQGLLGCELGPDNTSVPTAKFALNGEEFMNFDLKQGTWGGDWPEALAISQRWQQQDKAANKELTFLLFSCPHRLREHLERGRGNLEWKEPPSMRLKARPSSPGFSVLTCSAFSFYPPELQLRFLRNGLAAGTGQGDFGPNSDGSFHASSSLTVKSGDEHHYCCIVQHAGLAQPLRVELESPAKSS
Chain of FcRn (P61769 21-119, chain 2 of 2, further chain): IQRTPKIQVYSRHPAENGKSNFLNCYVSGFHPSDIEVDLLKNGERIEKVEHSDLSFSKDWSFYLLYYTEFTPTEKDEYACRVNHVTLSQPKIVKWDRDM

The term Kd denotes the concentration at which binding is half-saturated. The substance Non-specific IgG1 (antibody) displayed a Kd of 1640 nM.
With Non-specific IgG4 (antibody) the figure was 3640 nM.
